T1: human lymphotoxin (human, UniProt P01374 35-205, limits assumed)
T1 sequence (looked up): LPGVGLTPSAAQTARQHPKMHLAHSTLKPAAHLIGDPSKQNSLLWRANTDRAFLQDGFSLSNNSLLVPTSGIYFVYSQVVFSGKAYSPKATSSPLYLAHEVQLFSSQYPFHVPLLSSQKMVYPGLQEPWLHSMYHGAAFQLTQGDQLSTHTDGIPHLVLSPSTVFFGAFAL


What was measured:
recombinant human TNFα [1] = target: T2, recombinant human TNFα (human, UniProt P01375 77-233, 125I-labeled in the receptor binding assay); assay: cell-based or functional assay
recombinant human TNFα [2] = target: T2, recombinant human TNFα; assay: inhibition of 125I-TNFα binding to plate-coated p55-sf2, hybridoma supernatant
Method: (§1) 50:l of p55-sf2 at 0.5:g/ml in PBS was added to Optiplates to coat the wells during a one-hour incubation at 37° C. Serial dilutions of the eight TNV cell supernatants were prepared in 96-well round-bottom plates using PBS/0.1% BSA as diluent. […] The mixture was preincubated for one hour at RT. The coated Optiplates were washed to remove unbound p55-sf2 and 50:l of the ¹²⁵I-TNFα/cell supernatant mixture was transferred to the Optiplates. After 2 hrs at RT, Optiplates were washed three times with PBS-Tween. 100:l of Microscint-20 was added and the cpm bound determined using the TopCount gamma counter.
A simple binding assay was done to determine whether the eight TNV mAbs contained in hybridoma cell supernatant were capable of blocking TNFα binding to receptor. The concentrations of the TNV mAbs in their respective cell supernatants were first determined by standard ELISA analysis for human IgG.

recombinant human TNFα [3] = target: T2, recombinant human TNFα; assay: competition radioligand assay: mAb in hybridoma supernatant preincubated with 5 ng/ml 125I-TNFα, then 125I-TNFα bound to plate-coated p55-sf2 counted as cpm
Method: The amount of TNFα that bound to the p55 receptor in the presence of the mAbs was determined after washing away the unbound material and counting using a gamma counter. […] Each sample was tested in duplicate. The results shown are representative of two independent experiments.
as §1
A simple binding assay was done to determine whether the eight TNV mAbs contained in hybridoma cell supernatant were capable of blocking TNFα binding to receptor.

human lymphotoxin = target: T1, human lymphotoxin; assay: not described

| Binder | neutralizing TNFα bioactivity (recombinant human TNFα [1]) | fold better at blocking TNF binding than TNV118 and TNV14 (recombinant human TNFα [2]) | IC50 (read off the curve) (recombinant human TNFα [3]) | binding result (human lymphotoxin) |
| --- | --- | --- | --- | --- |
| TNV148 (antibody, human IgG1, kappa, V domains shown, also called GenTNV148.26.12; C420A) VH: QVQLVESGGGVVQPGRSLRLSCAASGFIFSSYAMHWVRQAPGNGLEWVAFMSYDGSNKKYADSVKGRFTISRDNPKNTLYLQMNSLRAEDTAVYYCARDRGIAAGGNYYYYGMDVWGQGTTVTVSS VL: EIVLTQSPATLSLSPGERATLSCRASQSVYSYLAWYQQKPGQAPRLLIYDASNRATGIPARFSGSGSGTDFTLTISSLEPEDFAVYYCQQRSNWPPFTFGPGTKVDIKR | 4 fold | ~4 fold | ~4 ng/mL | – |
| TNV86 (antibody, V domains shown, Hybridoma IgG1 kappa; also called GenTNV86.14.34; C417A) VH: QVQLVESGGGVVQPGRSLRLSCAASGFIFSSYAMHWVRQAPGNGLEWVAFMSYDGSNKKYADSVKGRFTISRDNPKNTLYLQMNSLRAEDTAVYYCARDRGIAAGGNYYYYGMDVWGQGTTVTVSS VL: EIVLTQSPATLSLSPGERATLSCRASQSVYSYLAWYQQKPGQAPRLLIYDASNRATGIPARFSGSGSGTDFTLTISSLEPEDFAVYYCQQRSNWPPFTFGPGTKVDIKR | – | ~4 fold | – | – |
| golimumab (SIMPONI) (antibody, human IgG1, kappa, V domains shown, N-glycosylated on asparagine 306, also called rTNV148B) VH: QVQLVESGGGVVQPGRSLRLSCAASGFIFSSYAMHWVRQAPGNGLEWVAFMSYDGSNKKYADSVKGRFTISRDNSKNTLYLQMNSLRAEDTAVYYCARDRGIAAGGNYYYYGMDVWGQGTTVTVSS VL: EIVLTQSPATLSLSPGERATLSCRASQSVYSYLAWYQQKPGQAPRLLIYDASNRATGIPARFSGSGSGTDFTLTISSLEPEDFAVYYCQQRSNWPPFTFGPGTKVDIKR | – | – | – | no binding |

Source: patent US20230042465A1 (Janssen / Centocor, published 2023)
